In US20240124519A1 one finds retention time data, which are given here for 1 substance.

This assay has as its target non-covalent complex of the soluble extracellular domain of human neonatal Fc receptor (FcRn) with C-terminal His-Avi Tag and human beta-2-microglobulin, biotinylated (human) (UniProt P55899). Description: FcRn affinity chromatography, Fc part after IdeS cleavage and preparative SEC.

Sequence of non-covalent complex of the soluble extracellular domain of human neonatal Fc receptor (FcRn) with C-terminal His-Avi Tag and human beta-2-microglobulin, biotinylated (human) (P55899 other isoform, or with tags, fused parts or gaps limits assumed, chain 1 of 2): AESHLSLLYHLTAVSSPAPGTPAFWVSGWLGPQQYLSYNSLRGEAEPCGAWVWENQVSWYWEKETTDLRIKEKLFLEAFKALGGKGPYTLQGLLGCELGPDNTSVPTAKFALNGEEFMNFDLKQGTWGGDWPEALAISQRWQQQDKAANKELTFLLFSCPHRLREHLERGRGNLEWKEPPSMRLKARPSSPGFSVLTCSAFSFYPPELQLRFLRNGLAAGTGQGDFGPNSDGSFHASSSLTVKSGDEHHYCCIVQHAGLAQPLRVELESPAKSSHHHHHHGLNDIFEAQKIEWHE
Sequence of non-covalent complex of the soluble extracellular domain of human neonatal Fc receptor (FcRn) with C-terminal His-Avi Tag and human beta-2-microglobulin, biotinylated (human) (b2m, as listed by the source limits assumed, chain 2 of 2): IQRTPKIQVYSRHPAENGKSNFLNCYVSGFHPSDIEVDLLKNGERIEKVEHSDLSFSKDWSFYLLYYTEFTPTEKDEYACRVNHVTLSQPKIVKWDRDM

In turn, “Fc part of anti-Abeta antibody (YTE mutant)” came in with a retention time of 52 min.
